The source of these data is patent US5863888A, “Human Bek Fibroblast growth factor receptor” (Rhone-Poulenc Rorer Pharmaceuticals Inc., priority 1995, dated 1999).

Read-outs that look alike come from different tables or passages of the source.

The test system of test [1] is flg. Kind of test: Saturation (equilibrium) binding of [125I]FGF to flg-overexpressing cells, Scatchard analysis. The arrangement: species or system human. As to conditions: for binding of [125I]aFGF and [125I]bFGF at saturation to flg in presence of unlabelled ligand: 100 fold molar excess of unlabelled ligand. As for the experimental part: (§1) Bovine derived aFGF, purified as previously described (Burgess, et al., J. Biol. Chem., 260: 11389-11392 (1985)), human recombinant bFGF (a kind gift of Dr. Moscatelli) and human recombinant kFGF (a kind gift of Dr. Claudio Basilico) were radioiodinated using the protocol for Enzymobeads (BioRad). The specific activity of the radiolabelled ligand was determined by radioisotope dilution using the respective unlabelled competitsr. The concentrations of the unlabelled ligands were determined by amino acid analysis (Jaye, et al., 1987 supra). The specific activity of the different preparations of [^125 I]aFGF varied between 130,000-760,000 cpm/ng and the specific activity for [^125 I]bFGF between 50,000-500,000 cpm/ng. The specific activity of [^125 I]kFGF varied from 50,000-200,000 cpm/ng. The binding assay was performed as follows: Fibronectin-coated 24 well dishes containing 1×10^5 cells/well were placed on ice, and the wells were rinsed twice with cold binding buffer (DMEM, 1 mg/ml BSA, 5 U/ml heparin, 50 mM Hepes, pH 7.4). Dishes were incubated on ice with 1 ml of ice cold binding buffer for 20 minutes, followed by 2 hours at 4° C. with serial dilutions of the [^125 I]FGF in cold binding buffer without heparin. Nonspecific binding was obtained using the same serial dilutions but in the presence of 100 fold molar excess of non-radioactive aFGF. After incubation, the cells were placed on-ice and rinsed twice with ice cold binding buffer minus heparin and then solubilized in 0.3N NaOH 37° C., 15 minutes. When [^125 I]bFGF was used the cells were placed on ice after incubation, washed three times with PBS, twice with 1 ml 2M NaCl in 20 mM Hepes, pH 7.5 and twice with 1 ml 2M NaCl in 20 mM sodium acetate, pH 4.0. The radioactivity released by the acid 2M NaCl wash represents specific binding to high affinity sites (Moscatelli, J. Cell. Physiol., 131: 123-130 (1987)). Acidic and basic FGF were radioiodinated and purified on heparin-Sepharose as described above. The dissociation constants of bek and fiq for aFGF and bFGF were established by saturation binding analysis of the overexpressing cell lines with the iodinated ligands. Binding of both aFGF and bFGF to bek and flg was specific and saturable (FIG. 6A, inserts). […] Also kFGF binds to bek with similar affinity as does bFGF but binds to flg with 4-foldless avidity than does bFGF. The data from additional experiments yield apparent Kds of aFGF for flg in the range of 20-80 pM and for bek in the range of 40-100 pM. […] The range of values probably arises from determinations of the specific activity and biological integrity of different preparations of the iodinated ligands. […] These conclusions were supported by competition (isotope dilution) experiments in which increasing amounts of nonradioactive aFGF or bFGF competed for binding with [^125 I]aFGF and [^125 I]bFGF to flg- and bek-overexpressing cells.

Test [2] has as its system bek. Kind of test: Saturation (equilibrium) binding of [125I]FGF to bek-overexpressing cells, Scatchard analysis. The arrangement: species or system human. The settings on record: for binding of [125I]aFGF and [125I]bFGF at saturation to bek in presence of unlabelled ligand: 100 fold molar excess of unlabelled ligand. As for the experimental part: as §1
[3] abbreviates: data from additional experiments, read-out: apparent Kd for flg, range.
Where [4] appears, read: typical experiment, Scatchard analysis, flg-overexpressing NIH 3T3 cells (flg26), 4° C., read-out: affinity (dissociation constant) for flg.
[5] abbreviates: within any single experiment, compared to aFGF.
[6] abbreviates: data from additional experiments, read-out: apparent Kd for bek, range.
The mark [7] stands for this setting: typical experiment, Scatchard analysis, bek-overexpressing NIH 3T3 cells (bek8; bek13 for kFGF), 4° C., read-out: affinity (dissociation constant) for bek.

Regarding “bFGF: human recombinant basic fibroblast growth factor, radioiodinated for binding”, the “binding of [125I]aFGF and [125I]bFGF at saturation to flg in presence of unlabelled ligand” value in test [1] was “completely eliminated”. The Kd in test [1] (setting [3]) is 0.05 to 0.15 nM; in test [1] (setting [4]) it was 0.047 nM; in test [2] (setting [6]), 0.08 to 0.15 nM; in test [2] (setting [7]), 0.082 nM. In addition, in test [1] (setting [5]), the “fold lower affinity for flg compared to aFGF” value is on record as “approximately 2 fold”. Further, in test [2], the “binding of [125I]aFGF and [125I]bFGF at saturation to bek in presence of unlabelled ligand” value is listed as “completely eliminated”. The “fold lower affinity for bek compared to aFGF” value in test [2] (setting [5]) was “approximately 2 fold”.

B1: kFGF: human recombinant kFGF, member of the FGF family, radioiodinated for binding (protein, UniProt P08620 31-206, looked up)
Fibroblast growth factor 4: APTAPNGTLEAELERRWESLVALSLARLPVAAQPKEAAVQSGAGDYLLGIKRLRRLYCNVGIGFHLQALPDGRIGGAHADTRDSLLELSPVERGVVSIFGVASRFFVAMSSKGKLYGSPFFTDECTFKEILLPNNYNAYESYKYPGMFIALSKNGKTKKGNRVSPTMKVTHFLPRL
modifications: radioiodinated
As for B1, the “fold less avidity for flg than bFGF” value in test [1] (compared to bFGF) was found to be 4 fold. Besides, the Kd in test [1] (setting [4]) worked out at 0.32 nM; in test [2] (setting [7]), 0.08 nM.

B2: aFGF: Bovine derived acidic fibroblast growth factor, purified, radioiodinated for binding (protein, UniProt P03968 16-155, looked up)
Fibroblast growth factor 1: FNLPLGNYKKPKLLYCSNGGYFLRILPDGTVDGTKDRSDQHIQLQLCAESIGEVYIKSTETGQFLAMDTDGLLYGSQTPNEECLFLERLEENHYNTYISKKHAEKHWFVGLKKNGRSKLGPRTHFGQKAILFLPLPVSSD
modifications: radioiodinated
In the case of B2, the “binding of [125I]aFGF and [125I]bFGF at saturation to flg in presence of unlabelled ligand” value in test [1] is recorded as “completely eliminated”. Besides, the Kd in test [1] (setting [3]) was 0.02 to 0.08 nM; in test [1] (setting [4]) it was 0.024 nM; in test [2] (setting [6]), 0.04 to 0.1 nM; in test [2] (setting [7]), 0.047 nM. The “binding of [125I]aFGF and [125I]bFGF at saturation to bek in presence of unlabelled ligand” value in test [2] is “completely eliminated”.
